Data on 125 sequences can be found in the supplement of paper PMC9112550, “Optimization of the antimicrobial peptide Bac7 by deep mutational scanning” (BMC Biology, 2022).
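Note: peptides expressed intracellularly from a pBAD plasmid library in pooled LB shake-flask culture, induced with 0.3% L-arabinose, DNA abundance read by NGS, three biological replicates, DESeq2 with apeglm shrinkage.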

This data set deals with Escherichia coli TOP10. Kind of data set: shrunken log2 fold change of peptide-encoding DNA abundance (4.5 h post-induction vs induction); higher = less antimicrobial activity (less host growth inhibition). The settings on record: time post-induction: 4.5 h; library: site-saturation at positions 5, 18, 19, 20.
For the sequence RRIRMRPPRLPRPRPRPKEDPRP, the “shrunken log2 fold change” value was found to be 1.82.

With RRIRKRPPRLPRPRPRPVNVPRP, the “shrunken log2 fold change” value was 0.0147.

On to RRIRYRPPRLPRPRPRPGLLPRP, for which the “shrunken log2 fold change” value turned out to be 0.0178.

In the case of RRIRDRPPRLPRPRPRPHSEPRP, the “shrunken log2 fold change” value was 0.00449.

RRIRLRPPRLPRPRPRPDDDPRP: the “shrunken log2 fold change” value is 0.129.

RRIRWRPPRLPRPRPRPVVDPRP: the “shrunken log2 fold change” value amounted to 0.0903.

As for RRIRHRPPRLPRPRPRPQVDPRP, the “shrunken log2 fold change” value was -0.0221.

As to RRIRKRPPRLPRPRPRPEIYPRP, the “shrunken log2 fold change” value was -0.00723.

As to RRIRPRPPRLPRPRPRPCESPRP, the “shrunken log2 fold change” value was determined as 0.183.

Turning to RRIRRRPPRLPRPRPRPAMTPRP, the “shrunken log2 fold change” value came to 0.314.

For the sequence RRIRPRPPRLPRPRPRPIAIPRP, the “shrunken log2 fold change” value was found to be 0.247.

Consider RRIRYRPPRLPRPRPRPVFIPRP, for which the “shrunken log2 fold change” value is -0.929.

RRIRVRPPRLPRPRPRPDPHPRP: the “shrunken log2 fold change” value was -0.16.

As for RRIRMRPPRLPRPRPRPMQYPRP, the “shrunken log2 fold change” value is -0.315.

As for RRIRMRPPRLPRPRPRPNPDPRP, the “shrunken log2 fold change” value turned out to be 0.377.

Consider RRIRHRPPRLPRPRPRPGERPRP, for which the “shrunken log2 fold change” value is -0.134.

Regarding RRIRIRPPRLPRPRPRPEFQPRP, the “shrunken log2 fold change” value is -0.129.

For the sequence RRIRCRPPRLPRPRPRPSQAPRP, the “shrunken log2 fold change” value was -0.0139.

Take RRIRNRPPRLPRPRPRPHVCPRP: the “shrunken log2 fold change” value is -0.00663.

As for RRIRSRPPRLPRPRPRPVTRPRP, the “shrunken log2 fold change” value was -0.538.

For the sequence RRIRCRPPRLPRPRPRPLMPPRP, the “shrunken log2 fold change” value was -0.151.

Take RRIRYRPPRLPRPRPRPLNQPRP: the “shrunken log2 fold change” value was -0.343.

In the case of RRIRCRPPRLPRPRPRPQWVPRP, the “shrunken log2 fold change” value is -0.103.

For RRIRPRPPRLPRPRPRPSFLPRP, the “shrunken log2 fold change” value was -0.271.

Take RRIRTRPPRLPRPRPRPAYGPRP: the “shrunken log2 fold change” value is -0.285.

With RRIRQRPPRLPRPRPRPCMNPRP, the “shrunken log2 fold change” value was -0.0959.

With RRIRDRPPRLPRPRPRPTEEPRP, the “shrunken log2 fold change” value was 0.355.

In the case of RRIRSRPPRLPRPRPRPRCRPRP, the “shrunken log2 fold change” value is 0.385.

As for RRIRLRPPRLPRPRPRPLAQPRP, the “shrunken log2 fold change” value was 0.73.

With RRIRNRPPRLPRPRPRPKWFPRP, the “shrunken log2 fold change” value is 0.00131.

For the sequence RRIRWRPPRLPRPRPRPHKNPRP, the “shrunken log2 fold change” value is -0.13.

With RRIRLRPPRLPRPRPRPEFWPRP, the “shrunken log2 fold change” value was determined as 0.417.

As to RRIRMRPPRLPRPRPRPAHDPRP, the “shrunken log2 fold change” value was 0.673.

RRIRIRPPRLPRPRPRPHRCPRP: the “shrunken log2 fold change” value was -0.0635.

Turning to RRIRARPPRLPRPRPRPHETPRP, the “shrunken log2 fold change” value turned out to be 0.062.

As to RRIRKRPPRLPRPRPRPLPEPRP, the “shrunken log2 fold change” value was 0.351.

Consider RRIRERPPRLPRPRPRPSQLPRP, for which the “shrunken log2 fold change” value is -0.127.

On to RRIRMRPPRLPRPRPRPVWPPRP, for which the “shrunken log2 fold change” value amounted to 1.07.

For the sequence RRIRWRPPRLPRPRPRPCPMPRP, the “shrunken log2 fold change” value is -0.0512.

In the case of RRIRKRPPRLPRPRPRPDQPPRP, the “shrunken log2 fold change” value is -0.018.

As for RRIRFRPPRLPRPRPRPKAMPRP, the “shrunken log2 fold change” value stood at 0.23.

Take RRIRDRPPRLPRPRPRPAALPRP: the “shrunken log2 fold change” value came out at 0.488.

Take RRIRERPPRLPRPRPRPHTRPRP: the “shrunken log2 fold change” value was -0.0821.

In the case of RRIRIRPPRLPRPRPRPRWVPRP, the “shrunken log2 fold change” value is 0.171.

As for RRIRPRPPRLPRPRPRPVCGPRP, the “shrunken log2 fold change” value was 0.208.

As to RRIRCRPPRLPRPRPRPCSIPRP, the “shrunken log2 fold change” value is -0.143.

For RRIRDRPPRLPRPRPRPVSDPRP, the “shrunken log2 fold change” value was -0.145.

Regarding RRIRIRPPRLPRPRPRPSDWPRP, the “shrunken log2 fold change” value was -0.0413.

For the sequence RRIRVRPPRLPRPRPRPMLDPRP, the “shrunken log2 fold change” value is -0.215.

With RRIRWRPPRLPRPRPRPIDHPRP, the “shrunken log2 fold change” value was -0.166.

As for RRIRCRPPRLPRPRPRPRNEPRP, the “shrunken log2 fold change” value was -0.0561.

On to RRIRFRPPRLPRPRPRPHIVPRP, for which the “shrunken log2 fold change” value is -0.0839.

Regarding RRIRLRPPRLPRPRPRPPEDPRP, the “shrunken log2 fold change” value was determined as 0.0763.

As for RRIRYRPPRLPRPRPRPRRAPRP, the “shrunken log2 fold change” value amounted to 0.364.

For RRIRMRPPRLPRPRPRPQYPPRP, the “shrunken log2 fold change” value is -0.0385.

Consider RRIRPRPPRLPRPRPRPNCMPRP, for which the “shrunken log2 fold change” value is -0.16.

For the sequence RRIRYRPPRLPRPRPRPSRTPRP, the “shrunken log2 fold change” value is -0.342.

With RRIRKRPPRLPRPRPRPMCIPRP, the “shrunken log2 fold change” value is -0.00174.

Regarding RRIRARPPRLPRPRPRPGEQPRP, the “shrunken log2 fold change” value amounted to 0.135.

Regarding RRIRLRPPRLPRPRPRPVQSPRP, the “shrunken log2 fold change” value is -0.031.

As to RRIRFRPPRLPRPRPRPHSAPRP, the “shrunken log2 fold change” value is -0.179.

Regarding RRIRPRPPRLPRPRPRPDVIPRP, the “shrunken log2 fold change” value was -0.0251.

As to RRIRQRPPRLPRPRPRPTMPPRP, the “shrunken log2 fold change” value came to 0.2.

RRIRLRPPRLPRPRPRPFLFPRP: the “shrunken log2 fold change” value was -0.34.

With RRIRRRPPRLPRPRPRPPDWPRP, the “shrunken log2 fold change” value came out at 0.618.

In the case of RRIRNRPPRLPRPRPRPKHFPRP, the “shrunken log2 fold change” value was determined as 0.054.

For RRIRCRPPRLPRPRPRPICEPRP, the “shrunken log2 fold change” value was -0.178.

Turning to RRIRKRPPRLPRPRPRPVPDPRP, the “shrunken log2 fold change” value was found to be 0.418.

Consider RRIRHRPPRLPRPRPRPKGTPRP, for which the “shrunken log2 fold change” value was -0.0951.

For the sequence RRIRARPPRLPRPRPRPAGTPRP, the “shrunken log2 fold change” value was 0.308.

On to RRIRYRPPRLPRPRPRPIYLPRP, for which the “shrunken log2 fold change” value is -0.0172.

As to RRIRERPPRLPRPRPRPQPFPRP, the “shrunken log2 fold change” value worked out at 0.217.

For the sequence RRIRWRPPRLPRPRPRPGQPPRP, the “shrunken log2 fold change” value came to 0.326.

As to RRIRGRPPRLPRPRPRPPMNPRP, the “shrunken log2 fold change” value came out at 0.464.

Regarding RRIRGRPPRLPRPRPRPCWWPRP, the “shrunken log2 fold change” value stood at 0.554.

As to RRIRHRPPRLPRPRPRPEWPPRP, the “shrunken log2 fold change” value came out at 0.228.

With RRIRARPPRLPRPRPRPNHQPRP, the “shrunken log2 fold change” value was found to be 0.243.

On to RRIRMRPPRLPRPRPRPDCGPRP, for which the “shrunken log2 fold change” value is -0.167.

RRIRWRPPRLPRPRPRPDCSPRP: the “shrunken log2 fold change” value was found to be 0.113.

On to RRIRGRPPRLPRPRPRPPTEPRP, for which the “shrunken log2 fold change” value is 1.04.

In the case of RRIRSRPPRLPRPRPRPQMMPRP, the “shrunken log2 fold change” value was -0.143.

With RRIRIRPPRLPRPRPRPKKRPRP, the “shrunken log2 fold change” value is -0.169.

As to RRIRVRPPRLPRPRPRPMAQPRP, the “shrunken log2 fold change” value was found to be 0.149.

Consider RRIRARPPRLPRPRPRPHDRPRP, for which the “shrunken log2 fold change” value came out at 0.128.

On to RRIRKRPPRLPRPRPRPGGKPRP, for which the “shrunken log2 fold change” value was 0.123.

RRIRYRPPRLPRPRPRPWHKPRP: the “shrunken log2 fold change” value was -0.377.

RRIRCRPPRLPRPRPRPSEEPRP: the “shrunken log2 fold change” value is -0.0443.

Turning to RRIRSRPPRLPRPRPRPHCPPRP, the “shrunken log2 fold change” value was -0.0154.

For RRIRERPPRLPRPRPRPQWFPRP, the “shrunken log2 fold change” value is -0.166.

Turning to RRIRDRPPRLPRPRPRPTMNPRP, the “shrunken log2 fold change” value turned out to be 0.116.

For the sequence RRIRHRPPRLPRPRPRPDAHPRP, the “shrunken log2 fold change” value is -0.119.

In the case of RRIRQRPPRLPRPRPRPYCSPRP, the “shrunken log2 fold change” value is -0.132.

As for RRIRLRPPRLPRPRPRPAWWPRP, the “shrunken log2 fold change” value amounted to 0.173.

As to RRIRYRPPRLPRPRPRPGFEPRP, the “shrunken log2 fold change” value was -0.127.

For RRIRFRPPRLPRPRPRPHESPRP, the “shrunken log2 fold change” value was -0.0515.

Turning to RRIRGRPPRLPRPRPRPFKTPRP, the “shrunken log2 fold change” value is -0.341.

With RRIRLRPPRLPRPRPRPAFHPRP, the “shrunken log2 fold change” value was -0.0947.

In the case of RRIRPRPPRLPRPRPRPGVIPRP, the “shrunken log2 fold change” value was -0.321.

Take RRIRWRPPRLPRPRPRPPKTPRP: the “shrunken log2 fold change” value worked out at 0.199.

Regarding RRIRMRPPRLPRPRPRPVLAPRP, the “shrunken log2 fold change” value was 0.493.

RRIRQRPPRLPRPRPRPKSFPRP: the “shrunken log2 fold change” value was 0.0406.

In the case of RRIRQRPPRLPRPRPRPWAEPRP, the “shrunken log2 fold change” value is -0.0482.

With RRIRYRPPRLPRPRPRPNQWPRP, the “shrunken log2 fold change” value stood at 0.00192.

As to RRIRGRPPRLPRPRPRPACEPRP, the “shrunken log2 fold change” value was determined as 0.833.

In the case of RRIRCRPPRLPRPRPRPAVRPRP, the “shrunken log2 fold change” value was determined as 0.0848.

On to RRIRPRPPRLPRPRPRPQKKPRP, for which the “shrunken log2 fold change” value was -0.113.

In the case of RRIRTRPPRLPRPRPRPPDNPRP, the “shrunken log2 fold change” value was -0.0234.

With RRIRARPPRLPRPRPRPHPIPRP, the “shrunken log2 fold change” value amounted to 0.286.

Consider RRIRARPPRLPRPRPRPIRAPRP, for which the “shrunken log2 fold change” value was 0.242.

For RRIRARPPRLPRPRPRPPNFPRP, the “shrunken log2 fold change” value was -0.0624.

On to RRIRERPPRLPRPRPRPEWYPRP, for which the “shrunken log2 fold change” value was 0.0172.

On to RRIRWRPPRLPRPRPRPIMMPRP, for which the “shrunken log2 fold change” value was -0.312.

As for RRIRTRPPRLPRPRPRPKNTPRP, the “shrunken log2 fold change” value was -0.508.

With RRIRKRPPRLPRPRPRPWWWPRP, the “shrunken log2 fold change” value was -0.0108.

Take RRIRYRPPRLPRPRPRPKSDPRP: the “shrunken log2 fold change” value is -0.299.

For the sequence RRIRWRPPRLPRPRPRPHTVPRP, the “shrunken log2 fold change” value stood at 0.00981.

RRIRARPPRLPRPRPRPMVPPRP: the “shrunken log2 fold change” value turned out to be 0.0221.

For the sequence RRIRARPPRLPRPRPRPMHNPRP, the “shrunken log2 fold change” value was -0.00444.

On to RRIRERPPRLPRPRPRPDKAPRP, for which the “shrunken log2 fold change” value is -0.0525.

Regarding RRIRVRPPRLPRPRPRPDPPPRP, the “shrunken log2 fold change” value worked out at 1.27.

Take RRIRYRPPRLPRPRPRPTKIPRP: the “shrunken log2 fold change” value was -0.373.

Regarding RRIRVRPPRLPRPRPRPQNMPRP, the “shrunken log2 fold change” value is -0.465.

Take RRIRKRPPRLPRPRPRPKPVPRP: the “shrunken log2 fold change” value came to 0.39.

Take RRIRWRPPRLPRPRPRPLVDPRP: the “shrunken log2 fold change” value was determined as 0.0816.

As to RRIRGRPPRLPRPRPRPDCIPRP, the “shrunken log2 fold change” value turned out to be 0.799.
